Experimental data published in the supplement of paper PMC11246515.
± gives the standard deviation of the averaged measurements.

Experiment: total protein half-life in vivo (active degradation + dilution); higher = more stable protein
[1] = E. coli NCM3722 delta-clpP delta-lon delta-hslV, growth: N-lim chemostat, doubling time 6 h
[2] = E. coli NCM3722 delta-hslV, growth: N-lim chemostat, doubling time 6 h
[3] = E. coli NCM3722 delta-lon, growth: N-lim chemostat, doubling time 6 h
[4] = E. coli NCM3722 delta-smpB, growth: N-lim chemostat, doubling time 6 h
[5] = wild type E. coli NCM3722, growth: C-lim chemostat, doubling time 3 h
[6] = wild type E. coli NCM3722, growth: C-lim chemostat, doubling time 6 h
[7] = wild type E. coli NCM3722, growth: C-lim chemostat, doubling time 12 h
[8] = wild type E. coli NCM3722, growth: N-lim chemostat, doubling time 6 h
[9] = wild type E. coli NCM3722, growth: P-lim chemostat, doubling time 6 h
[10] = wild type E. coli NCM3722, growth: P-lim chemostat, doubling time 12 h
[11] = wild type E. coli NCM3722, growth: N-lim chemostat, doubling time 12 h
[12] = E. coli NCM3722 delta-clpP, growth: N-lim chemostat, doubling time 6 h

Row | Sequence | total protein half-life in vivo [1] [h] | total protein half-life in vivo [2] [h] | total protein half-life in vivo [3] [h] | total protein half-life in vivo [4] [h] | total protein half-life in vivo [5] [h] | total protein half-life in vivo [6] [h] | total protein half-life in vivo [7] [h] | total protein half-life in vivo [8] [h] | total protein half-life in vivo [9] [h] | total protein half-life in vivo [10] [h] | total protein half-life in vivo [11] [h] | total protein half-life in vivo [12] [h]
1 | MSKFLDRFRYFKQKGETFADGHGQLLNTNRDWEDGYRQRWQHDKIVRSTHGVNCTGSCSWKIYVKNGLVTWETQQTDYPRTRPDLPNHEPRGCPRGASYSWYLYSANRLKYPMMRKRLMKMWREAKALHSDPVEAWASIIEDADKAKSFKQARGRGGFVRSSWQEVNELIAASNVYTIKNYGPDRVAGFSPIPAMSMVSYASGARYLSLIGGTCLSFYDWYCDLPPASPQTWGEQTDVPESADWYNSSYIIAWGSNVPQTRTPDAHFFTEVRYKGTKTVAVTPDYAEIAKLCDLWLAPKQGTDAAMALAMGHVMLREFHLDNPSQYFTDYVRRYTDMPMLVMLEERDGYYAAGRMLRAADLVDALGQENNPEWKTVAFNTNGEMVAPNGSIGFRWGEKGKWNLEQRDGKTGEETELQLSLLGSQDEIAEVGFPYFGGDGTEHFNKVELENVLLHKLPVKRLQLADGSTALVTTVYDLTLANYGLERGLNDVNCATSYDDVKAYTPAWAEQITGVSRSQIIRIAREFADNADKTHGRSMIIVGAGLNHWYHLDMNYRGLINMLIFCGCVGQSGGGWAHYVGQEKLRPQTGWQPLAFALDWQRPARHMNSTSYFYNHSSQWRYETVTAEELLSPMADKSRYTGHLIDFNVRAERMGWLPSAPQLGTNPLTIAGEAEKAGMNPVDYTVKSLKEGSIRFAAEQPENGKNHPRNLFIWRSNLLGSSGKGHEFMLKYLLGTEHGIQGKDLGQQGGVKPEEVDWQDNGLEGKLDLVVTLDFRLSSTCLYSDIILPTATWYEKDDMNTSDMHPFIHPLSAAVDPAWEAKSDWEIYKAIAKKFSEVCVGHLGKETDIVTLPIQHDSAAELAQPLDVKDWKKGECDLIPGKTAPHIMVVERDYPATYERFTSIGPLMEKIGNGGKGIAWNTQSEMDLLRKLNYTKAEGPAKGQPMLNTAIDAAEMILTLAPETNGQVAVKAWAALSEFTGRDHTHLALNKEDEKIRFRDIQAQPRKIISSPTWSGLEDEHVSYNAGYTNVHELIPWRTLSGRQQLYQDHQWMRDFGESLLVYRPPIDTRSVKEVIGQKSNGNQEKALNFLTPHQKWGIHSTYSDNLLMLTLGRGGPVVWLSEADAKDLGIADNDWIEVFNSNGALTARAVVSQRVPAGMTMMYHAQERIVNLPGSEITQQRGGIHNSVTRITPKPTHMIGGYAHLAYGFNYYGTVGSNRDEFVVVRKMKNIDWLDGEGNDQVQESVK | 6.33 ± 1.8 | 5.88 ± 0.73 | 6.6 ± 0.84 | 4.97 ± 0.39 | 2.41 | 6.81 | 13.2 | 6.23 ± 0.94 | 5.64 ± 0.29 | 12.1 ± 1.3 | – | –
2 | MVSALYAVLSALLLMKFSFDVVRLRMQYRVAYGDGGFSELQSAIRIHGNAVEYIPIAIVLMLFMEMNGAETWMVHICGIVLLAGRLMHYYGFHHRLFRWRRSGMSATWCALLLMVLANLWYMPWELVFSLR | > 8 | > 8 | 6.32 | 7.19 ± 0.64 | 3.51 ± 0.12 | 7.27 | 13.7 | – | 6.53 ± 0.12 | 13.1 ± 1.1 | > 16 | –
3 | MALTTISPHDAQELIARGAKLIDIRDADEYLREHIPEADLAPLSVLEQSGLPAKLRHEQIIFHCQAGKRTSNNADKLAAIAAPAEIFLLEDGIDGWKKAGLPVAVNKSQPLPLMRQVQIAAGGLILIGVVLGYTVNSGFFLLSGFVGAGLLFAGISGFCGMARLLDKMPWNQRA | 4.3 ± 0.19 | 4.71 ± 0.24 | 4.74 ± 0.82 | 5.91 ± 1.4 | 2.61 ± 0.23 | 6.01 ± 1.2 | 8.96 ± 2.1 | 4.58 ± 0.2 | 5.266 ± 0.016 | 10.3 ± 0.39 | 8.75 ± 0.24 | 4.2 ± 0.14
4 | MSGLRPALSTFIFLLLITGGVYPLLTTVLGQWWFPWQANGSLIREGDTVRGSALIGQNFTGNGYFHGRPSATAEMPYNPQASGGSNLAVSNPELDKLIAARVAALRAANPDASASVPVELVTASASGLDNNITPQAAAWQIPRVAKARNLSVEQLTQLIAKYSQQPLVKYIGQPVVNIVELNLALDKLDE | – | 4.28 | – | – | – | – | – | – | – | 11.7 ± 2.1 | – | –
5 | MSEEKLGQHYLAALNEAFPGVVLDHAWQTKDQLTVTVKVNYLPEVVEFLYYKQGGWLSVLFGNDERKLNGHYAVYYVLSMEKGTKCWITVRVEVDANKPEYPSVTPRVPAAVWGEREVRDMYGLIPVGLPDERRLVLPDDWPDELYPLRKDSMDYRQRPAPTTDAETYEFINELGDKKNNVVPIGPLHVTSDEPGHFRLFVDGENIIDADYRLFYVHRGMEKLAETRMGYNEVTFLSDRVCGICGFAHSTAYTTSVENAMGIQVPERAQMIRAILLEVERLHSHLLNLGLACHFTGFDSGFMQFFRVRETSMKMAEILTGARKTYGLNLIGGIRRDLLKDDMIQTRQLAQQMRREVQELVDVLLSTPNMEQRTVGIGRLDPEIARDFSNVGPMVRASGHARDTRADHPFVGYGLLPMEVHSEQGCDVISRLKVRINEVYTALNMIDYGLDNLPGGPLMVEGFTYIPHRFALGFAEAPRGDDIHWSMTGDNQKLYRWRCRAATYANWPTLRYMLRGNTVSDAPLIIGSLDPCYSCTDRMTVVDVRKKKSKVVPYKELERYSIERKNSPLK | 4.79 | 2.89 | 3.68 | 2.74 ± 0.029 | 2.46 | 5.18 | 11.2 ± 0.78 | 3.86 ± 1.7 | 5.02 | 8.26 ± 0.97 | – | –
6 | MIKRTLLAAAIFSALPAYAGLTSITAGYDFTDYSGDHGNRNLAYAELVAKVENATLLFNLSQGRRDYETEHFNATRGQGAVWYKWNNWLTTRTGIAFADNTPVFARQDFRQDINLALLPKTLFTTGYRYTKYYDDVEVDAWQGGVSLYTGPVITSYRYTHYDSSDAGGSYSNMISVRLNDPRGTGYTQLWLSRGTGAYTYDWTPETRYGSMKSVSLQRIQPLTEQLNLGLTAGKVWYDTPTDDFNGLQLAARLTWKF | – | – | – | > 8 | – | – | 15.4 | – | – | – | – | –
7 | MNIELRHLRYFVAVAEELHFGRAAARLNISQPPLSQQIQALEQQIGARLLARTNRSVLLTAAGKQFLADSRQILSMVDDAAARAERLHQGEAGELRIGFTSSAPFIRAVSDTLSLFRRDYPDVHLQTREMNTREQIAPLIEGTLDMGLLRNTALPESLEHAVIVHEPLMAMIPHDHPLANNPNVTLAELAKEPFVFFDPHVGTGLYDDILGLMRRYHLTPVITQEVGEAMTIIGLVSAGLGVSILPASFKRVQLNEMRWVPIAEEDAVSEMWLVWPKHHEQSPAARNFRIHLLNALR | 6 ± 0.22 | 6.28 ± 0.17 | 5.5 ± 0.23 | 5.65 ± 0.16 | – | 6.3 ± 1.5 | 11.97 ± 0.024 | 6.8 ± 0.96 | 5.12 ± 0.62 | 13.3 ± 0.86 | 12.5 ± 1.8 | 5.84 ± 0.3
